B1: 210 (protein)
chain: MAQGKVALEEHFAIPETLQDSAGFVPGDYWKELQHRLLDIQDTRLKLMDAHGIGTMILSLAAPAVQAIPDRRKAIEIARRANDFLAEECAKRPDRFLAFAALPLQDPDAATEELQRCVNDLGFVGALVNGFSVEGDGQTPLYYDLPQYRPFWGEVEKLDVPFYLHPRNPLPQDSRIYDGHPWLLGPTWAFAQETAVHALRLMASGLFDEHPRLNIILGHMGEGLPYMMYRIDHRIAWVKLPPRYPAKRRFMDYFNENFHITTSGNFRTQTLIDAILEIGADRILFSTDWPFENIDHAADWFNATSIAEADRVKIGRTNARRLFKLDGD
modifications: Dicamba decarboxylase variant
B2: 252 (protein)
chain: MAQGKVALEEHFAIPETLQDSAGFVPGDYWKELQHRLLDIQDTRLRLMDAHGIGTMILSLAAPGVQAIPDRRKAIEIARRANDFLAEECAKRPDRFLAFAALPLQDVDAASEELQRCVNDLGFVGALVNGFSQEGDGQTPLYYDLPQYRPFWGEVEKLDVPFYLHPRNPLPQDSRIYDGHPWLLGPTWAFAQETAVHALRLMASGLFDEHPRLNIILGHMGEGLPYMMYRIDHRIAWVKLPPRYPAKRRFMDYFNENFHITTSGNFRTQTLIDAILEIGADRILFSTDWPFENIDHAADWFNATSIAEADRVKIGRTNARRLFKLDGA
modifications: Dicamba decarboxylase variant
B3: 248 (protein)
chain: MAQGKVALEEHFAIPETLQDSAGFVPSEYLKELQHRLLDIQDTRLKLMDAHGIETMILSLAAPAVQAIPDRRKAIEIARRANDFLAEECAKRPDRFLAFAALPLQDPDAATEELQRTVNTLGFVGALVNGFSVEGDGQTPLYYDLPQYRPFWGEVEKLDVPFYLHPRNPLPQDSRIYDGHPWLLGPTWAFAQETAVHALRLMASGLFDEHPRLNIILGHMGEGLPYMMYRIDHRIAWVHEPPRYPAKRRFMDYFNENFHITTSGNFRTQTLIDAILEIGADRILFSTDWPFENIDHAADWFNATSIAEADRVKIGRTNARRLFKLDLD
modifications: Dicamba decarboxylase variant
B4: 206 (protein)
chain: MAQGKVALEEHFAIPETLQDSAGFVPGDYWKELQHRLLDIQDTRLKLMDAHGIETMILSLAAPAVQAIPDRRKAIEIARRANDFLAEECAKRPDRFLAFAALPMQDVDAASEELQRCVNDLGFVGALVNGFSQEGDGQTPLYYDLPQYRPFWGEVEKLDVPFYLHPRNPLPQDSRIYDGHPWLLGPTWAFAQETAVHALRLMASGLFDEHPRLNIILGHLGEGLPYMMYRIDHRIAWVHEPPRYPAKRRFMDYFNENFHITTSGNFRTQTLIDAILEIGADRILFSTDWPFENIDHAAAWFNATSIAEADRLKIGRTNARRLFKLDLD
modifications: Dicamba decarboxylase variant
B5: 249 (protein)
chain: MAQGKVALEEHFAIPETLQDSAGFVPGDYWKELQHRLLDIQDTRLKLMDAHRIETMILSLAAPAVQAIPDRRKAIEIARRANDILAEECAKRPDRFLAFAALPMQDVDAATEELQRCVNDLGFVGALVNGFSQEGDGQTPLYYDLPQYRPFWGEVEKLDVPFYLHPRNPLPQDSRIYDGHPWLLGPTWAFAQETAVHALRLMASGLFDEHPRLNIILGHMGEGLPYMMYRIDHRIAWVHQPPRYPAKRRFMDYFNENFHITTSGNFRTQTLIDAILEIGADRILFSTDWPFENIDHAADWFNATSIAEADRVKIGRTNARRLFKLDGD
modifications: Dicamba decarboxylase variant
B6: 207 (protein)
chain: MAQGKVALEEHFAIPETLQDSAGFVPGDYWKELQHRLLDIQDTRLKLMDAHGIETMILSLAAPAVQAIPDRRKAIEIARRANDFLAEECAKRPDRFLAFAALPLQDPDAATEELQRCVNDLGFVGALVNGFSVEGDGQTPLYYDLPQYRPFWGEVEKLDVPFYLHPRNPLPQDSRIYDGHPWLLGPTWAFAQETAVHALRLMASGLFDEHPRLNIILGHMGEGLPYMMYRIDHRIAWVHEPPRYPAKRRFMDYFNENFHITTSGNFRTQTLIDAILEIGADRILFSTDWPFENIDHAAAWFNATSIAEADRVKIGRTNARRLFKLDLD
modifications: Dicamba decarboxylase variant
B7: 250 (protein)
chain: MAQGKVALEEHFAIPETLQDSAGFVPGDYWKELQHRLLDIQDTRLKLMDAHGIETMILSLAAPAVQAIPDRRKAIEIARRANDMLAEECAKRPDRFLAFAALPLQDPDAATEELQRCVNDLGFVGALVNGFSQEGDGQTPLYYDLPQYRPFWGEVEKLDVPFYLHPRNPLPQDSRIYDGHPWLLGPTWAFAQETAVHALRLMASGLFDEHPRLNIILGHMGEGLPYMMYRIDHRIAWVHEPPRYPAKRRFMDYFNENFHITTSGNFRTQTLIDAILEIGADRILFSTDWPFENIDHAADWFNATSIAEADRVKIGRTNARRLFKLDGD
modifications: Dicamba decarboxylase variant
B8: 208 (protein)
chain: MAQGKVALEEHFAIPETLQDSAGFVPSDYLKELQHRLLDIQDTRLKLMDAHGIETMILSLAAPAVQAIPDRRKAIEIARRANDFLAEECAKRPDRFLAFAALPLQDPDAATEELQRCVNDLGFVGALVNGFSVEGDGQTPLYYDLPQYRPFWGEVEKLDVPFYLHPRNPLPQDSRIYDGHPWLLGPTWAFAQETAVHALRLMASGLFDEHPRLNIILGHLGEGLPYMMYRIDHRIAWVHEPPRYPAKRRFMDYFNENFHITTSGNFRTQTLIDAILEIGADRILFSTDWPFENIDHAADWFNATSIAEADRLKIGRTNARRLFKLDLD
modifications: Dicamba decarboxylase variant
B9: 251 (protein)
chain: MAQGKVALEEHFAIPETLQDSAGFVPGDYWKELQHRLLDIQDTRLKLMDAHGIDTMILSLAAPGVQAIPDRRKAIEIARRANDILAEECAKRPDRFLAFAALPLQDPDAATEELQRCVNDLGFVGALVNGFSQEGDGQTPLYYDLPQYRPFWGEVEKLDVPFYLHPRNPLPQDSRIYDGHPWLLGPTWAFAQETAVHALRLMASGLFDEHPRLNIILGHMGEGLPYMMYRIDHRIAWVQEPPRYPAKRRFMDYFNENFHITTSGNFRTQTLIDAILEIGADRILFSTDWPFENIDHAADWFNATSIAEADRVKIGRTNARRLFKLDLD
modifications: Dicamba decarboxylase variant
B10: 209 (protein)
chain: MAQGKVALEEHFAIPETLNDSAGFVPGDYWKELQHRLLDIQDTRLKLMDAHGIETMILSLAAPAVQAIPDRRKAIEIARRANDFLAEECAKRPDRFLAFAALPLQDPDAATEELQRTVNDLGFVGALVNGFSVEGDGQTPLYYDLPQYRPFWGEVEKLDVPFYLHPRNPLPQDSRIYDGHPWLLGPTWAFAQETAVHALRLMASGLFDEHPRLNIILGHMGEGLPYMMYRIDHRIAWVHEPPRYPAKRRFMDYFNENFHITTSGNFRTQTLIDAILEIGADRILFSTDWPFENIDHAADWFNATSIAEADRVKIGRTNARRLFKLDGD
modifications: Dicamba decarboxylase variant

Experiments:
[1] = Saturation mutagenesis of SEQ ID NO:109: dicamba decarboxylation activity of point mutants (carbon dioxide released); conditions: decarboxylation activity (carbon dioxide released) of point mutant compared with unmutated backbone protein; backbone SEQ ID NO: 109
[2] = Shuffled variant libraries: 14CO2 capturing assay in 384-well format; conditions: decarboxylation activity (carbon dioxide released) compared with unmutated backbone protein SEQ ID NO 133 (DDEC0201)

Molecule | Fold Activity [1] | Fold Activity [2]
B1 | 1.8 | 1.3
B2 | 0.7 | 0.9
B3 | 2.3 | 1.5
B4 | 1.7 | 1.3
B5 | 2.6 | 0.9
B6 | 1.3 | 1.4
B7 | 0.7 | 0.8
B8 | 1.5 | 2.2
B9 | 1 | 1.2
B10 | 1.6 | 1.3
